Results taken from the nanobody polyreactivity screen of Harvey et al. (2022).

Experiment: yeast display, Sf9 membrane polyspecificity reagent, FACS + sequencing; frameworks hold sequencing errors
How it was run: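 A nanobody's polyreactivity label depends on the gate it was sorted from. Yeast display cells were stained with 10% biotinylated, detergent-solubilized Sf9 membrane reagent for 1 hour at 4 °C, enriched on streptavidin microbeads and sorted by FACS. The low and high (top ~1%) gates were set on anti-HA fluorescence for expression and streptavidin fluorescence for reagent binding.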

Sequence	polyreactivity (PSR sort gate)
QVQLVESGGGLVQAGGSLRLSCAASGSTFKRYAMGWYRQAPGKERELVAAITNGDRTNYADSVKGRFTISRDNAKNTVYLQMNSLKPEDTAVYYCAAAYSRYTSRFYYWGQGTQVTVSS	high polyreactivity
QVQLVESGGGLVQAGGSLRLSCAASGSTFKRYAMGWYRQAPGKERELVASISRSGGSTYYADSVKGRFTISRDNAKNTVYLQMNSLKPEDTAVYYCNARNRVYYTLSGYGYWGQGTQVTVSS	high polyreactivity
QVQLVESGGGLVQAGGSLRLSCAASGSTFKRYAMGWYRQAPGKERELVASISSGGSTNYADSVKGRFTISRDNAKNTVYLQMNSLKREDTAVYYCAVSYRSFRYYWERYYSWGQGTQVTLSS	high polyreactivity
QVQLVESGGGLVQAGGSLRLSCAASGSTFKRYDLGWYRQAPGKERELFAAIRTSGGTTYYADSVKCRFTISRDYAKNNVYLQMNSLKPEDTAVYYCAASKWPRHRTRRYYYWVQGTQVTVSS	high polyreactivity
QVQLVESGGGLVQAGGSLRLSCAASGSTFKRYTMGWYRQAPGKESELVAAISSSGGSTYYADSVKGRFTISRDNAKNTVYLQMNSQKPEDTAVYYCAKGYQRGRDYWGQGTQVTVSS	high polyreactivity
QVQLVESGGGLVQAGGSLRLSCAASGSTFKSYAMGWYRPAPGKERELVAAISSSGGSTYYADSVKGRFTISRDNAKNTVYLQMNSLKPEDTAVYYCNAVWVQGGIGNYWGQGTQVTVSS	low polyreactivity
QVQLVESGGGLVQAGGSLRLSCAASGSTFKTYAMGWYRQAPGKERELVAAITSSGGRTYYADSVKGRFTISRDNAKNTVYLQMNSLKPEDTAVYYCAAGRRSYNQLDYWGQGTQVTVSS	high polyreactivity
QVQLVESGGGLVQAGGSLRLSCAASGSTFKTYTMGWYRQAPGKEREFVAGITSGGSTSYADSVKGRFTISRDNAKNTVYLQMNSLKQEDTAVYYCAAPDGDTSFSDQAYDYWGQGTQVTVSS	low polyreactivity
QVQLVESGGGLVQAGGSLRLSCAASGSTFKTYVMGWYRQAPGKERELVAGISDSGGTTYYADSVKGRFTISRDNAKNTVYLQMNSLKPEDTAVYFCNAAFGVYVATGDSFPWHKKFGYWGQGTQVTVSS	high polyreactivity
QVQLVESGGGLVQAGGSLRLSCAASGSTFKVYAMGWYRQAPGKERELVAAISTGGGSTYYADSVKGRFTISRDNAKNTVSLQMNSLKPEDTAVYYCAAVDRYPYAGYYWGQGTQVTVSS	high polyreactivity
QVQLVESGGGLVQAGGSLRLSCAASGSTFKYNAMGWYRQAPGKEREFVAAISYSGGSTYYADSVKGRFTISRDYAKNTVYLQMNSLKPEDTAVYYCAAYPWERYTWRYVYRGHDYWGQGTQVTVSS	low polyreactivity
QVQLVESGGGLVQAGGSLRLSCAASGSTFKYNAMGWYRQAPGKERELVASISRSGGSTYYADSVKGRFTISRDNAKNTVYLQMNSLKPEDTAVYYCAVRVSSHPVYHYNYWGQGTQVTVSS	high polyreactivity
QVQLVESGGGLVQAGGSLRLSCAASGSTFKYNTMGWYRQAPGKERELVARISWSGTRTYYADSVKGRFTISRDNAKNTVYLQMNSLKPEDTAVYYCAKVSYFWSPYGYDSWGQGTQVTVSS	high polyreactivity
QVQLVESGGGLVQAGGSLRLSCAASGSTFKYYALGWYRQAPGKERELVAVITSGGSTYYADSVKGRFTISRDNAKNTVYFQMNSLKPEDTAVYYCAAGVRAYNWGEYDYWGQGTQVTVSS	low polyreactivity
QVQLVESGGGLVQAGGSLRLSCAASGSTFKYYAMGWYRQAPGKERELVAAISGTGGNTYYADSVKGRFTISRDNAKNTVYLQMNSLKPEDTAVYYCAAGFRRGWAYTTYDYWGQGTQVTVSS	low polyreactivity
QVQLVESGGGLVQAGGSLRLSCAASGSTFKYYTMGWYRQAPGKERELVAAISYSGGSTYYADSVKGRFTISRDNAKNTVYLQMNSLKPEDTAVYYCAALRYADYDYWGQGTQVTVSS	high polyreactivity
QVQLVESGGGLVQAGGSLRLSCAASGSTFLGYAMGWSRQAPGKERELVAAISWSGGSTYYADSVKGRFTISRDNAKNTVYLQMNRLKPEDTAVYYCNAVGYLDFEWGQGTQVTVSS	low polyreactivity
QVQLVESGGGLVQAGGSLRLSCAASGSTFLGYAMGWYRQAPGKERELVAAITYRGTRTYYADSVKGRFTISRDYAKNTVYLQMNSLKPEDTTVYYCAADRYIGTVEYDYWGQGTQVTVSS	high polyreactivity
QVQLVESGGGLVQAGGSLRLSCAASGSTFLNNAMGWSRQAPGEERELVAAISRRGGNTYYADSEKGRFTISRDNAKNTVSLHMNSLKPEDTAVYYCAADLVWTRYFGYAQDYYIEFDYWGQGTQVTVSS	high polyreactivity
QVQLVESGGGLVQAGGSLRLSCAASGSTFLNNAMGWYRQAPGKERELVATITSGGITNYADSVKGRFTISRDNAKNTVYLQMNSLKPEDTAVYYCNADTWGFTYYYWGQGTQVTVSS	low polyreactivity
QVQLVESGGGLVQAGGSLRLSCAASGSTFLNYAMGWSRQAPGKERELVAAISGSTTRTYYADSVKGRFTISRDNAKNPVYLQMNSLKPEDTAVYYCAARVRYPPYRSSDGQRAGYWGQGTQVTVSS	high polyreactivity
QVQLVESGGGLVQAGGSLRLSCAASGSTFLRFAMGWYRQAPGKERELVARISGGGTTYYADSVKGRFTISRDNAKNTVYLQMNSLKPEDTAVYYCNAFYFYVNQGRYEYGYWGQGTQVTVSS	high polyreactivity
QVQLVESGGGLVQAGGSLRLSCAASGSTFLRNAMGWYRQAPGKERELVATISRTGGTTYYADSVKGRFSISRDNAKTTVYLQMNSLKPEDTAVYYCAAYSKYGQHYDYWGQGTQVTVSS	high polyreactivity
QVQLVESGGGLVQAGGSLRLSCAASGSTFLRNAMGWYRQAPGKERELVATISTGSGRTYYADSVKGRFTISRDNAKNTVYLQMNSLKPEDTAVYYCATRVPLGPYYYGMYYWGQGTQVTVSS	high polyreactivity
QVQLVESGGGLVQAGGSLRLSCAASGSTFLRYAMGWYRQAPGKERELVAAISYRDGSTYYADSVKGRFTISRDNAKNTVYLQMNSLKPEDTAVYYCARGSWYRSAYYYWGQGTQVTVSS	high polyreactivity
QVQLVESGGGLVQAGGSLRLSCAASGSTFLRYAMGWYRQAPGKERELVADITTSGGITYYADSVKGRFTISRDNAKNTVYLQMNSLKPEDTAVYYCAARYLPYRRIKYDYWGQGTQVTVSS	low polyreactivity
QVQLVESGGGLVQAGGSLRLSCAASGSTFLSNAMGWYRQAPGKERELVAAISVSGARTYYADSVKGRFTISRDNAKNTVYLQMNSLKPEDTAVYYCNAGTSVRYTESSDYWGQATQVTVSS	high polyreactivity
QVQLVESGGGLVQAGGSLRLSCAASGSTFLSNAMGWYRQAPGKERELVAAITTSGTSTFYADSVKGRFTISRDNAKNTVYLQMNSLKPEDTAVYCAKDYLPYLHFVAPSTGDYDYWGQGTQVTVSS	low polyreactivity
QVQLVESGGGLVQAGGSLRLSCAASGSTFLTNTMGWYRQAPGKERELVAAISKSGGSTYYADSVKGRFTISRDNAKNTVYLQMNSLKPEDTAVYYCAAVRYVHFGYDYWGQGTQVTVSS	high polyreactivity
QVQLVESGGGLVQAGGSLRLSCAASGSTFLTNVMGWYRQAPGKEREFVAAITANGGRTYYADSVKGRFTISRDYAKMTVYLQMNSLKPEDTAVYYAVETAWSYNSNYWFDYWGEGTQVTVSS	high polyreactivity
